# Earlier results as cited in doi:10.1101/2020.11.23.394015.
# Biological target: Glu89 (UniProt position 105, IDALNENKVLV)
# Settings: folded; closed-to-open EF loop (Tanford) transition
substance,measurement,value
beta-lactoglobulin (BBL) (Bos taurus),pKa,~ 7.3
